Paper PMC4615246
Like-named read-outs stand apart in the source and are kept apart here.

Assays:
Test in all cases: LacI/LacO array recruitment in cells
[1] = biological target: LacI-CFP-sPom121 (human) (UniProt Q96HA1)
[2] = biological target: LacI-CFP-Nup58 (human) (UniProt Q9BVL2)
[3] = biological target: LacI-CFP-Nup214 (human) (UniProt P35658)
[4] = biological target: LacI-CFP-Nup107 (human) (UniProt P57740)
[5] = biological target: LacI-CFP-Nup153 (human) (UniProt P49790)
[6] = biological target: LacI-CFP-Nup98 (human) (UniProt P52948)
[7] = biological target: LacI-CFP-Nup50 (human) (UniProt Q9UKX7)
[8] = biological target: LacI-CFP-mNup85 (mouse) (UniProt Q8R480)
[9] = biological target: LacI-CFP-Nup133 (human) (UniProt Q8WUM0)
[10] = biological target: LacI-CFP-Nup53 (human) (UniProt Q8NFH5)
LacI-CFP-Nup53 (human), sequence (Q8NFH5 whole entry): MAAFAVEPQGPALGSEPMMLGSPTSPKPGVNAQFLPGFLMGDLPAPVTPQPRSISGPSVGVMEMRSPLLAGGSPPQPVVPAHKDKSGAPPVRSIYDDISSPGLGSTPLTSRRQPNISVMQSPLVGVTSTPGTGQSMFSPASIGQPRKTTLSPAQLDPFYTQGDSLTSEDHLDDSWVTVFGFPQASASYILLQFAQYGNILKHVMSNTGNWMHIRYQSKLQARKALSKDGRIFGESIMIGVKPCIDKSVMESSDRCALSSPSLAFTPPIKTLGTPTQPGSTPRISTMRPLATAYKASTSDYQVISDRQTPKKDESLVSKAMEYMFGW

[11] = biological target: LacI-CFP-Nup214 (human) (UniProt P35658); remark: listed apart in the source
[12] = biological target: LacI-CFP-sPom121 (human) (UniProt Q96HA1); remark: listed apart in the source

LacI-CFP-sPom121 (human), sequence (Q96HA1 whole entry): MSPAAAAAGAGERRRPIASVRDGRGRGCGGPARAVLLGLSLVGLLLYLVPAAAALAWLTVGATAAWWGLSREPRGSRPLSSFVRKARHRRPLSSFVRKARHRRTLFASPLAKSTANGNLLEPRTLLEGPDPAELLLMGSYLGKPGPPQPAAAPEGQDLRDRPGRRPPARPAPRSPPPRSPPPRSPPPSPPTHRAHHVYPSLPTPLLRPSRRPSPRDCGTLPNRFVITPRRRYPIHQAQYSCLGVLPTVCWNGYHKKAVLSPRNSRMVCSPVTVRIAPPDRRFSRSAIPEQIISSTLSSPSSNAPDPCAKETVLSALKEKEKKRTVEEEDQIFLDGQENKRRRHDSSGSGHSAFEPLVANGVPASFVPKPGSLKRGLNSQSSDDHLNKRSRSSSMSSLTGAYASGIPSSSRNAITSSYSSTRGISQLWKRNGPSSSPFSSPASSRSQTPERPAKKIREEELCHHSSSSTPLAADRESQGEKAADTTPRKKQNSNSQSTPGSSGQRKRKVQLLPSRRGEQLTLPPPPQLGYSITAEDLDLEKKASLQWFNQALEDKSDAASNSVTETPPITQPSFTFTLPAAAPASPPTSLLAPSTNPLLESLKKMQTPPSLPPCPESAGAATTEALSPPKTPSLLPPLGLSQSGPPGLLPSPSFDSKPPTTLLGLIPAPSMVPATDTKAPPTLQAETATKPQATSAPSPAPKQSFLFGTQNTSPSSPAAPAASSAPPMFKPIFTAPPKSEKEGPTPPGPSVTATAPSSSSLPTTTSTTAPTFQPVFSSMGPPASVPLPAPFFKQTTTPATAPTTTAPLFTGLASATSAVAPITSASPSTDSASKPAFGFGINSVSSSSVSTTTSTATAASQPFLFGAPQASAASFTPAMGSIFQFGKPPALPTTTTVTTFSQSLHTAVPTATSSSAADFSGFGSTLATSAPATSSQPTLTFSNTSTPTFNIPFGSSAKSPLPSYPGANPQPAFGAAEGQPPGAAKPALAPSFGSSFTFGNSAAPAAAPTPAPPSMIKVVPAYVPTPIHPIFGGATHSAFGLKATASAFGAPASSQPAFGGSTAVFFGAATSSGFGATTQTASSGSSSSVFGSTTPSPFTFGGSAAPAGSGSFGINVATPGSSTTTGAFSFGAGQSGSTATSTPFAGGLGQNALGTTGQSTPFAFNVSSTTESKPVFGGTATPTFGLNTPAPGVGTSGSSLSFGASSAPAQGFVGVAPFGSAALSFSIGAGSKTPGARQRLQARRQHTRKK
LacI-CFP-Nup153 (human), sequence (P49790 whole entry): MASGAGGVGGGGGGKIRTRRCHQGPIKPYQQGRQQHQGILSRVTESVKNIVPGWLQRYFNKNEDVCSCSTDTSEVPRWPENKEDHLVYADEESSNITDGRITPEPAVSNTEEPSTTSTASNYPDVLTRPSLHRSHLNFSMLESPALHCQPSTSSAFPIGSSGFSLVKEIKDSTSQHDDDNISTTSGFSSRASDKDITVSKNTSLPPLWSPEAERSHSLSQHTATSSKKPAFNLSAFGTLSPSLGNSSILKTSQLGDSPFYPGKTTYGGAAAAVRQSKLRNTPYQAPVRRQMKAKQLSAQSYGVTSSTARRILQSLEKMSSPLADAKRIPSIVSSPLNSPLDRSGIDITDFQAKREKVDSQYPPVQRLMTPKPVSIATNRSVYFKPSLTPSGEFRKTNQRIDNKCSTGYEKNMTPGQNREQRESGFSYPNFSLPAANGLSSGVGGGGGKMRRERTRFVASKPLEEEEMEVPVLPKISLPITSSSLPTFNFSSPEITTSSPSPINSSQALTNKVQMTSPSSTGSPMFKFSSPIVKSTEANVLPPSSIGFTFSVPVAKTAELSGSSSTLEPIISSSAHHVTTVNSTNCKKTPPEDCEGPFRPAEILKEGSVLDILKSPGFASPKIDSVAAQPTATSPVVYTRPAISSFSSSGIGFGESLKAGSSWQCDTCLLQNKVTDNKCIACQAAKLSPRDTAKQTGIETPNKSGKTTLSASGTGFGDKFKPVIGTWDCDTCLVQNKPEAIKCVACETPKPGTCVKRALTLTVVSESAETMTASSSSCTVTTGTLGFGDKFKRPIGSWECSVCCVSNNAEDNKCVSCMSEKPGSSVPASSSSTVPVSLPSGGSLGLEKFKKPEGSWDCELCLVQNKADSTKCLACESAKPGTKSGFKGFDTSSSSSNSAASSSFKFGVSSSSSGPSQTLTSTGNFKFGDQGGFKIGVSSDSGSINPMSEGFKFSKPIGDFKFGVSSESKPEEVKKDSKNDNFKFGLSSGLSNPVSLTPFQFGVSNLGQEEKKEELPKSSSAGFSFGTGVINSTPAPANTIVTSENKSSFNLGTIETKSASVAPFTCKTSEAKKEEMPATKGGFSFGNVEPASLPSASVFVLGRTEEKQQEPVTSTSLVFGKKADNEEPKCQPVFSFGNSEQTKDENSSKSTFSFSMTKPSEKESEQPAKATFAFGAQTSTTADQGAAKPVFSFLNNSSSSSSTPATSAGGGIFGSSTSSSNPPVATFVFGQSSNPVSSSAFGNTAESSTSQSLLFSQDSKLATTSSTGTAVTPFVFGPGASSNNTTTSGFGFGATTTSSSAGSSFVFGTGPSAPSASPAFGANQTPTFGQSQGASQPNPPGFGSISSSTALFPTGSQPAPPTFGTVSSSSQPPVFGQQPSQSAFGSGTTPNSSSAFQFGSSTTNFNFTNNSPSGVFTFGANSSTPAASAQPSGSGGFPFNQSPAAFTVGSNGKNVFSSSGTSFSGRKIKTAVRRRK
LacI-CFP-Nup214 (human), sequence (P35658 whole entry): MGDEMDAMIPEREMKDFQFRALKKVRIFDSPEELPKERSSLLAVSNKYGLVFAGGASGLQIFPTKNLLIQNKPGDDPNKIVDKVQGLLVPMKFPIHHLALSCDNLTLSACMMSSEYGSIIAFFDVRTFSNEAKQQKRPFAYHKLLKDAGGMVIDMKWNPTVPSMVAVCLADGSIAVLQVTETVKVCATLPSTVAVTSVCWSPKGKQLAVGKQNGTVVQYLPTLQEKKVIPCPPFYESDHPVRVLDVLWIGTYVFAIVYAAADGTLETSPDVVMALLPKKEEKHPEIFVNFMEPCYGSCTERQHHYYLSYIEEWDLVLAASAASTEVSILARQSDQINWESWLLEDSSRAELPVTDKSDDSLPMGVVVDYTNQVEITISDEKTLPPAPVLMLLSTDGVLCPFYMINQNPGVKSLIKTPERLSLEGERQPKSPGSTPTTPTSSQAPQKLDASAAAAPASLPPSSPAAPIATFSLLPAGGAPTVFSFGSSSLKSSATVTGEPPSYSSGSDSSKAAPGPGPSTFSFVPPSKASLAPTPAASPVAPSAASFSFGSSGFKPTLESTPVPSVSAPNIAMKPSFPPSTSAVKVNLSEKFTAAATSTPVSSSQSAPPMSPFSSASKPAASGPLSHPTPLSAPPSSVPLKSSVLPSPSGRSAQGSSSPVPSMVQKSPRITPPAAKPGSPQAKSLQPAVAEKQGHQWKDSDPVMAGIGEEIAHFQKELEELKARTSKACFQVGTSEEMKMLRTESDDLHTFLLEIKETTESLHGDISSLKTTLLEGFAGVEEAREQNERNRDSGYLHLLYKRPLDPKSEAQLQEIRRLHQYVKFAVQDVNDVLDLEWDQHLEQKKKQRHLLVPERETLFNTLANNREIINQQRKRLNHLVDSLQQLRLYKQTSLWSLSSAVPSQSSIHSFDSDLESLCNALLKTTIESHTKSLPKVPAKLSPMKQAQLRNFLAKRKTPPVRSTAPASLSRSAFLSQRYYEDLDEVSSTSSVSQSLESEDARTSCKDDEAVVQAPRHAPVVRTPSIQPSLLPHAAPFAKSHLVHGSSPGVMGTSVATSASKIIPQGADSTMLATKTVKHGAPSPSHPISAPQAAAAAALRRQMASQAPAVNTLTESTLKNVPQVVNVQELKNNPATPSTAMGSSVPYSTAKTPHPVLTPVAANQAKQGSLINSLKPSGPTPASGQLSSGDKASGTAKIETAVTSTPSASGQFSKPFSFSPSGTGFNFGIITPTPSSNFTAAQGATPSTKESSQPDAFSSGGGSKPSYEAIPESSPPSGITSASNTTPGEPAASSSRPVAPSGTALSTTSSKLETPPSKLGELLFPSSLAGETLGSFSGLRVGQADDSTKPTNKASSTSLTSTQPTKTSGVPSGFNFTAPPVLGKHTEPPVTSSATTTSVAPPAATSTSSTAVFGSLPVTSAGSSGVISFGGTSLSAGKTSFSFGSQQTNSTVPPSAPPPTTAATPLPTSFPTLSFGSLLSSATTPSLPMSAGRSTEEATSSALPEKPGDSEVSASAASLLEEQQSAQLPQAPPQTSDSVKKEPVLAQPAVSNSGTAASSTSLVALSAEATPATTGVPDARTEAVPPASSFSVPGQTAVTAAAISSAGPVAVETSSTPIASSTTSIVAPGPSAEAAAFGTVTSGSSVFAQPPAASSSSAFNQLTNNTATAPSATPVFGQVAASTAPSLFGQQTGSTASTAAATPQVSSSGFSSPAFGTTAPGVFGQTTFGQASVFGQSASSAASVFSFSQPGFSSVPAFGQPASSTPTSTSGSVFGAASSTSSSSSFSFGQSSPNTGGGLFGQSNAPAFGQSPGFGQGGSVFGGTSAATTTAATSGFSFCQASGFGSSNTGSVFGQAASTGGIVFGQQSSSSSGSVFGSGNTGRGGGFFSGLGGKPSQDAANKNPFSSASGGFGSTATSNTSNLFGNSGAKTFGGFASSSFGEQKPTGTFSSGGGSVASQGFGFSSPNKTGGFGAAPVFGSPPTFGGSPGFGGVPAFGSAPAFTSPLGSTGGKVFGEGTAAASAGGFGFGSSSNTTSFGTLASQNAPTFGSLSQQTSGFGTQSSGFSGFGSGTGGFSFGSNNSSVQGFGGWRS

Q: Which percent of transfected cells showing colocalization [1] does the source give for “ELYS (endogenous) (from UniProt Q8WYP5 1-2266) (natural protein)” here?
A: 14%

Q: ELYS (endogenous), Q8WYP5 1-2266 was tested. Which percent of transfected cells showing colocalization [2] did it give?
A: 13%

Q: What about the percent of transfected cells showing colocalization [3] of the same substance?
A: 40%

Q: And the percent of transfected cells showing colocalization [4]?
A: 72%

Q: And the percent of transfected cells showing colocalization [5]?
A: 65%

Q: And the percent of transfected cells showing colocalization [6]?
A: 16%

Q: What about the percent of transfected cells showing colocalization [7] of the same substance?
A: 37%

Q: And the percent of transfected cells showing colocalization [8]?
A: 9%

Q: What about the percent of transfected cells showing colocalization [9] of the same substance?
A: 62%

Q: And the percent of transfected cells showing colocalization [10]?
A: 34%

Q: And the percent of transfected cells showing colocalization [11]?
A: 45%

Q: How did the percent of transfected cells showing colocalization [1] turn out when “Nup53 (endogenous) (from UniProt Q8NFH5 1-326) (natural protein)” was run?
A: 2%

Q: “Nup62 (endogenous) (from UniProt P37198 1-522) (natural protein)” was tested. Which percent of transfected cells showing colocalization [1] did it give?
A: 89%

Q: For “Nup85 (endogenous) (from UniProt Q9BW27 1-656) (natural protein)”, which percent of transfected cells showing colocalization [1] is on record?
A: 7%

Q: For “Nup93 (endogenous) (from UniProt Q8N1F7 1-819) (natural protein)”, which percent of transfected cells showing colocalization [1] is on record?
A: 68%

Q: And the percent of transfected cells showing colocalization [12]?
A: 71%

Q: For “Nup98 (endogenous) (from UniProt P52948 1-880) (natural protein)”, which percent of transfected cells showing colocalization [1] is on record?
A: 72%

Q: What about the percent of transfected cells showing colocalization [12] of the same substance?
A: 74%

Q: How did the percent of transfected cells showing colocalization [1] turn out when “Nup133 (endogenous) (from UniProt Q8WUM0 1-1156) (natural protein)” was run?
A: 8%

Q: Which percent of transfected cells showing colocalization [9] does the source give for “Nup214 (endogenous), P35658 1-2090 (natural protein)” here?
A: 23%

Q: With “Nup214 (endogenous), P35658 1-2090 (natural protein; other documents disagree on this pair)” as the substance, how does the percent of transfected cells showing colocalization [5] read?
A: 6%
